Measured values from US5674838A, “Hirudin derivatives and a process for their preparation” (Hoechst Aktiengesellschaft, priority 1994, dated 1997).

Assays:
Rhesus monkeys = assay: anticoagulatory effect following intravenous administration to Rhesus monkeys; assay type: in vivo
From the text: Amino acid analysis of the product conforms with the composition which is to be expected from the amino acid sequence. Edman sequence analysis indicates 2 N-terminal amino acid residues Leu(1) and Asn(37).

[1] = molecular target: recombinantly obtained desulfato-Tyr63 hirudin (leech (Hirudo medicinalis), made recombinantly in yeast cells)

(hirudin 1-63)-Thr(64)-Arg(65)-Arg(66)--OH [Example 3]
anticoagulatory effect (activity compared with starting hirudin) (Rhesus monkeys; intravenous administration to Rhesus monkeys (1 mg/kg), test conditions per Jurgens 1952): virtually identical to that of the starting hirudin

chymotrypsin (Merck, Darmstadt) (enzyme)
transpeptidation at Tyr63; composition of the crude product by analytical HPLC [1]: 65.2%

B1: (hirudin 1-36)-Thr, (hirudin 37-65) (protein)
chain 1: LTYTDCTESGQNLCLCEGSNVCGQGNKCILGSDGEKT
chain 2: NQCVTGEGTPKPQSHNDGDFEEIPEEYLQ
anticoagulatory effect (activity compared with starting hirudin) (Rhesus monkeys; intravenous administration to Rhesus monkeys, dose not given): virtually identical to that of the starting hirudin
